Data: patent publication US20190330331A1 (BLOOM DIAGNOSTICS, published 2019)

Biological target: T1, recombinant yeast-expressed His-tagged full-length AMH comprising amino acids 26-560 of human AMH (human, UniProt P03971 26-560)
T1 construct: Bought protein (Antikörper Online, ABIN2524475); also called recombinant AMH; human Anti-Müllerian hormone
T1 sequence: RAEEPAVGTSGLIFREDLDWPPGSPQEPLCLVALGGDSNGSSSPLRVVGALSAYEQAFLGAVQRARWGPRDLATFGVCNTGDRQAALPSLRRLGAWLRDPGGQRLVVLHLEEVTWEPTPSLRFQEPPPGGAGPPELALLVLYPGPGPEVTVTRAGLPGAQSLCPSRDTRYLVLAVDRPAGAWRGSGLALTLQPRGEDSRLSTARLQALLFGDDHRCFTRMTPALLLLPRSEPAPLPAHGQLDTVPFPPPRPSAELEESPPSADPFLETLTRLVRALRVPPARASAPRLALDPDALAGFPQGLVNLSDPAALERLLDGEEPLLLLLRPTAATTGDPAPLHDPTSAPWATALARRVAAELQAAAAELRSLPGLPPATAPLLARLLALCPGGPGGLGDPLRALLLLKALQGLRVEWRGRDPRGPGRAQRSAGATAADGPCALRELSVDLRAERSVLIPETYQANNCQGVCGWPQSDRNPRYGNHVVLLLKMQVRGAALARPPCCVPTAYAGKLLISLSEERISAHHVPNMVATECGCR
Assay: SPR (Biacore T200), AMH amine-coupled to the chip, antibody as analyte, bivalent-analyte model
Experimental: Surface-plasmon-resonance (SPR) measurements were performed using a Biacore T200 facility, control software version 2.0, and Series S sensor-chips carboxymethyl dextran chip type 5 (CMS, GE Healthcare Bio-Sciences AB, Uppsala, Sweden). The system was operating at 25° C. in running buffer HBSP (10 mmol/L 4-(2-hydroxyethyl)piperazine-1-ethanesulfonic acid (Hepes), 150 mmol/L NaCl., 0.05% Tween 20, pH 7.4). AMH was transferred to 10 mmol/L sodium acetate buffer pH 4.0 by passing it through a NAPS column (GE Healthcare) before immobilization by amine coupling (Biacore Sensor Surface Handbook). The carboxyl groups on the chip were activated with an mixture containing 200 mM 1-ethyl-3-(3-dimethylaminopropyl)-carbodiimide hydrochloride (EDC, Sigma-Aldrich) and 50 mM N hydroxysuccinimide (NHS, Fluka) for 180 s. AMH was then injected for 150 s at a concentration of 2.5 μg/mL in, at a flow of 10 μL/min and […]. Approximately 100 resonance units (RU) of AMH were covalently bound to the flow cell. Unreacted NHS esters were blocked with 1 mol/L ethanolamine pH 8.5 for 7 min. […] Association and dissociation rates and the binding constants of the antibodies were determined using the bivalent-analyte-binding model of the Biacore evaluation software (version 2.0). […]

Kd: ~1 nM
B1: G170-FC5 (antibody, V domains shown)
VH: EVKLVESGGGLVKPGGSLKLSCAASGFIFSTYTMSWVRQTPGKRLEWVATISSGGSYTYYPDSVKGRFTISRDNAKNTLYLQMSSLRSEDTAMYYCTRHGSDYRYDGFDYWGQGTTLTVSS
VL: DILMTQSPASLSVSVGETVTITCRASENIYSNLAWYQQKQGKSPQLLVYAATNLADGVPSRFSGSGSGTQYSLKINSLQSEDFGSYYCQHFWGTPFTFGSGTKLEIK
notes: kappa primers were used for the VL; also called anti-AMH G170-FC5; anti-AMH antibody
